Tests used:
human TNF-β = target: T1, human TNF-β (human, UniProt P01374 35-205, limits assumed); experiment: Western blotting, reducing conditions
T1 sequence (looked up): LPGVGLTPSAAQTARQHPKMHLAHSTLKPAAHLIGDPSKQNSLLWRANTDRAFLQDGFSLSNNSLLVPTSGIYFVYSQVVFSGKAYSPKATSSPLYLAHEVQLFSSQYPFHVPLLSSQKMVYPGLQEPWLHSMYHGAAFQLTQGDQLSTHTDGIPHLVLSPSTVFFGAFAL

murine TNF-α = target: T2, murine TNF-α (murine, UniProt P06804 80-235); experiment: Western blotting, reducing conditions
T2 sequence (looked up): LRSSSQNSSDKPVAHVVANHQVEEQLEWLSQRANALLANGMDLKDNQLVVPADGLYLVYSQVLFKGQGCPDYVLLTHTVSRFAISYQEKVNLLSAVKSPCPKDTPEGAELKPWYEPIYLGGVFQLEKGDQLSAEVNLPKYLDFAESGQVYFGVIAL

human TNF-α = human TNF-α (human, UniProt P01375 77-233); experiment: cell-based or functional assay
Cynomolgus monkey TNF-α = Cynomolgus monkey TNF-α (Cynomolgus monkey, UniProt P79337 77-233); experiment: ELISA
human IL-6 = human IL-6 (human, UniProt P05231 30-212); experiment: cell-based or functional assay
murine IL-6 = target: T3, murine IL-6 (murine, UniProt P08505 25-211); experiment: Western blotting
T3 sequence (looked up): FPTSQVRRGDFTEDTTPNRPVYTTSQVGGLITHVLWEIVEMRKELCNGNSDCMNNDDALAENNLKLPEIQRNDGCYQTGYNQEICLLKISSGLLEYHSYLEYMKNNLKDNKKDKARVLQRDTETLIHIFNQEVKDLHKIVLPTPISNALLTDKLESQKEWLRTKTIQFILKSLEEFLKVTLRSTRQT

Sequence of Cynomolgus monkey TNF-α (P79337 77-233 limits assumed): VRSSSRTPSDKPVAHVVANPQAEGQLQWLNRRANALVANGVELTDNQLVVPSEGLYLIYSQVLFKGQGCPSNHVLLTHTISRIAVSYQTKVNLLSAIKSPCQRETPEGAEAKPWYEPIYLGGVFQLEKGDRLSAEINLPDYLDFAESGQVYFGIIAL
Sequence of human TNF-α (P01375 77-233 limits assumed): as the sequence (P79337 77-233 limits assumed) above, with V37L, T44R, N72T, L138R counted along it

B1: 4C9 mouse anti-human TNF-α monoclonal antibody (antibody, mouse IgG1, V domains shown)
VH: VQLQESGPSLVKPSQTLSLTCSVTGDSITSGFWNWIRKFPGNKFEYMGYISYSGRTYYNPSLKSRLSITRDTSKNQFYLQLNSVTAEDTATYYCARDANYVLDYWGQGTTLTVSS
VL: DIQLTQSPSSLAMSVGQKVTMNCKSSQSLLNSSTQKNYLAWFQQKPGQSPKLLVYFASARESGVPDRFIGSGSGTDFTLTISSVQAEDLADYFCQQHYRTPFTFGSGTKLEIKR
notes: Murine IgG1/kappa; 4C9D11 and 4C9D11G11 are subclones of 4C9; also called 4C9D11; 4C9D11G11
For B1, the binding result (human TNF-β) was “no binding”, the binding result (murine TNF-α) was “no binding” and the “EC50, inhibition of TNF-α-induced cytotoxicity, L929 cells, MTS” value (human TNF-α) was 0.0112 µg/mL.

B2: chimeric 4C9 antibody (chimeric anti-TNF-α clone 6A9) (antibody, V domains shown)
VH: B1 VH
VL: B1 VL
notes: also called cIgG-anti-TNF-α
B2: binds (Cynomolgus monkey TNF-α).

B3: 2-3B2 mouse monoclonal antibody against human IL-6 (antibody, V domains shown)
VH: VKLQESGGGLVQPGGSRKLSCAASGFTFSRFGMHWVRQAPEKGLEWVAYIGRGSSTIYYADTVKGRFTISRDNPKNTLFLQMTSLRSEDTAMYYCARSNWDGAMDYWGQGTSVTVSS
VL: DIQLTQSPASLSASVGETVTITCRASGNIHNFLAWYQQKQGKSPQLLVYNAETLADGVPSRFSGSGSGTQYSLKINSLQPEDFGSYYCQHFWSTPWTFGGGTKLEIKR
notes: Murine IgG1/kappa hybridoma antibody; also called 2-3B2 anti-IL-6 antibody
With B3 the “potency for inhibiting IL-6 induced phosphorylation of STAT3, relative to 4-4E6” value (human IL-6) was roughly 100 fold and the binding result (murine IL-6) was “no binding”.

Source: US20150125450A1 (published 2015)
